{"source": "patent US6440696", "about": "(NEW ENGLAND MEDICAL CENTER, dated 2002)", "binders": {"B1": {"name": "pGAD10 two-hybrid clone encoding the 194 carboxyl terminal amino acid residues of E6TP1 (other)", "chain": "NDVLFSSTYPSLPKSLPLRRPSYTLGMKSLHGEFSASDSSLTDIQETRRQPMPDPGLMPLPDTAADLDWSNLVDAAKAYEVQRASFFAASDENHRPLSAASNSDQLEDQALAQMKPYSSSKDSSPTLASKVDQLEGMLKMLREDLKKEKEDKAHLQAEVQHLREDNLRLQEESQNASDKLKKFTEWVFNTIDMS", "notes": "also called set of eleven identical strongly positive clones"}, "B2": {"name": "HPV6 E6 protein (other)", "chain": "MESANASTSATTIDQLCKTFNLSMHTLQINCVFCKNALTTAEIYSYAYKHLKVLFRGGYPYAACACCLEFHGKINQYRHFDYAGYATTVEEETKQDILDVLIRCYLCHKPLCEVEKVKHILTKARFIKLNCTWKGRCLHCWTTCMEDMLP", "notes": "also called low-risk HPV6 E6"}, "B3": {"name": "HPV16 E6 protein (other)", "chain": "MFQDPQERPRKLPQLCTELQTTIHDIILECVYCKQQLLRREVYDFAFRDLCIVYRDGNPYAVCDKCLKFYSKISEYRHYCYSLYGTTLEQQYNKPLCDLLIRCINCQKPLCPEEKQRHLDKKQRFHNIRGRWTGRCMSCCRSSRTRRETQL", "notes": "also called high-risk HPV16 E6; wild-type E6"}, "B4": {"name": "murine p53/GAL4 DNA binding domain fusion protein (pVA3) (other)", "chain": "MKLLSSIEQACDICRLKKLKCSKEKPKCAKCLKNNWECRYSPKTKRSPLTRAHLTEVESRLERLEQLFLLIFPREDLDMILKMDSLQDIKALLTGLFVQDNVNKDAVTDRLASVETDMPLTLRQHRISATSSSEESSNKGQRQLTVSPVTETPGPVAPAPATPWPLSSFVPSQKTYQGNYGFHLGFLQSGTAKSVMCTYSPPLNKLFCQLAKTCPVQLWVSATPPAGSRVRAMAIYKKSQHMTEVVRRCPHHERCSDGDGLAPPQHLIRVEGNLYPEYLEDRQTFRHSVVVPYEPPEAGSEYTTIHYKYMCNSSCMGGMNRRPILTIITLEDSSGNLLGRDSFEVRVCACPGRDRRTEEENFRKKEVLCPELPPGSAKRALPTCTSASPPQKKKPLDGEYFTLKIRGRKRFEMFRELNEALELKDAHATEESGDSRAHSSYLKTKKGQSTSRHKKTMVKKVGPDSD", "notes": "Control bait from Clontech; also called murine p53 fused to Gal4 in pGBT9"}, "B5": {"name": "HPV11 E6 protein (other)", "chain": "MESKDASTSATSIDQLCKTFNLSLHTLQIQCVFCRNALTTAEIYAYAYKNLKVVWRDNFPFAACACCLELQGKINQYRHFNYAAYAPTVEEETNEDILKVLIRCYLCHKPLCEIEKLKHILGKARFIKLNNQWKGRCLHCWTTCMEDLLP"}, "B6": {"name": "human lamin/GAL4 DNA binding domain fusion protein (pLam 5') (other)", "chain": "MKLLSSIEQACDICRLKKLKCSKEKPKCAKCLKNNWECRYSPKTKRSPLTRAHLTEVESRLERLEQLFLLIFPREDLDMILKMDSLQDIKALLTGLFVQDNVNKDAVTDRLASVETDMPLTLRQHRISATSSSEESSNKGQRQLTVSSEEVVSREVSGIKAAYEAELGDARKTLDSVAKERARLQLELSKVREEFKELKARNTKKEGDLIAAQARLKDLEALLNSKEAALSTALSEKRTLEGELHDLRGQVAKLEAALGEAKKQLQDEMLRRVDAENRLQTMKEELDFQKNIYSEELRETKRRHETRLVEID", "notes": "Control bait from Clontech; also called human lamin fused to Gal4 in pGBT9"}, "B7": {"name": "pGBT9-E6 bait (GAL4 fused to HPV16 E6 residues 2-158) (other)", "chain": "MKLLSSIEQACDICRLKKLKCSKEKPKCAKCLKNNWECRYSPKTKRSPLTRAHLTEVESRLERLEQLFLLIFPREDLDMILKMDSLQDIKALLTGLFVQDNVNKDAVTDRLASVETDMPLTLRQHRISATSSSEESSNKGQRQLTVSHQKRTAMFQDPQERPRKLPQLCTELQTTIHDIILECVYCKQQLLRREVYDFAFRDLCIVYRDGNPYAVCDKCLKFYSKISEYRHYCYSLYGTTLEQQYNKPLCDLLIRCINCQKPLCPEEKQRHLDKKQRFHNIRGRWTGRCMSCCRSSRTRRETQL", "notes": "also called pGB9-E6"}, "B8": {"name": "pGAD10 two-hybrid clone encoding the 378 carboxyl terminal amino acid residues of E6TP1 (other)", "chain": "SSRHSASPVVFTSARSSPKEELHPAAPSQLAPSFSSSSSSSSGPRSFYPRQGATSKYLIGWKKPEGTINSVGFMDTRKRHQSDGNEIAHTRLRASTRDLRASPKPTSKSTIEEDLKKLIDLESPTPESQKSFKFHALSSPQSPFPSTPTSRRALHRTLSDESIYNSQREHFFTSRASLLDQALPNDVLFSSTYPSLPKSLPLRRPSYTLGMKSLHGEFSASDSSLTDIQETRRQPMPDPGLMPLPDTAADLDWSNLVDAAKAYEVQRASFFAASDENHRPLSAASNSDQLEDQALAQMKPYSSSKDSSPTLASKVDQLEGMLKMLREDLKKEKEDKAHLQAEVQHLREDNLRLQEESQNASDKLKKFTEWVFNTIDMS", "notes": "also called one distinct strongly positive clone; longer yeast two-hybrid cDNA clone"}}, "key": {"[1]": {"biological_target": "B6", "assay": "yeast two-hybrid, control bait"}, "[2]": {"biological_target": "B4", "assay": "yeast two-hybrid, control bait"}, "[3]": {"biological_target": "B7", "assay": "yeast two-hybrid: growth on Trp-, Leu-, His- medium and beta-gal activity"}, "GST": {"biological_target": "T1, GST (UniProt P08515 1-218 = GST)", "T1 construct": "Negative control; also called GST alone", "T1 sequence (P08515 whole entry)": "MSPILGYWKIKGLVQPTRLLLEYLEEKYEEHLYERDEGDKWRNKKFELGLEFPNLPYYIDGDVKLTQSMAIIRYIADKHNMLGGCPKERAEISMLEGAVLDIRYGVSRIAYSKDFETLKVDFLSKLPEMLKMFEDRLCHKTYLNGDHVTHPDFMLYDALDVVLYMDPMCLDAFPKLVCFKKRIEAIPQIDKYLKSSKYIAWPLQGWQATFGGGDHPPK", "assay": "GST pull-down of in vitro translated 35S-labelled E6"}, "[4]": {"biological_target": "T2, pGAD10 two-hybrid clone encoding the 476 carboxyl-terminal amino acids of E6-AP (human, UniProt Q05086 400-875)", "T2 construct": "domain: 476 carboxyl-terminal amino acids; also called one weakly positive clone", "T2 sequence": "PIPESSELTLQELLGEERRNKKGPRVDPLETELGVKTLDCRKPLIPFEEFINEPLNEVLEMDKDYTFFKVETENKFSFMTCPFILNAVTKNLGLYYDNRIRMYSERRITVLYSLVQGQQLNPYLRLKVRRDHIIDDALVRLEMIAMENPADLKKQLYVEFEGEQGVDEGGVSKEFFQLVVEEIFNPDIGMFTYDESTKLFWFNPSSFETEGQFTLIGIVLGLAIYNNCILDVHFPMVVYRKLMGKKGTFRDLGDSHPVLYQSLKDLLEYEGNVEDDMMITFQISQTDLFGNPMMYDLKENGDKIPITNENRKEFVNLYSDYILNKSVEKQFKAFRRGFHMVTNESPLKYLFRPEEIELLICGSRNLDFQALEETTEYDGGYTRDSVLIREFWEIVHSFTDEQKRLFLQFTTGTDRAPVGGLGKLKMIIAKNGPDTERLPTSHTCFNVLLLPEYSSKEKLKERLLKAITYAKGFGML", "assay": "yeast two-hybrid, control bait"}, "[5]": {"biological_target": "B8", "assay": "yeast two-hybrid, control bait"}, "[6]": {"biological_target": "B8", "assay": "yeast two-hybrid: growth on Trp-, Leu-, His- medium and beta-gal activity"}}, "data": [{"binder": "B1", "values": [{"measurement": "binding result", "setting": "[1]", "result": "no binding"}, {"measurement": "binding result", "setting": "[2]", "result": "no binding"}, {"measurement": "binding result", "setting": "[3]", "result": "binds"}]}, {"binder": "B2", "values": [{"measurement": "binding result", "setting": "GST", "result": "no binding (tested: 1 µg GST fusion protein)"}]}, {"binder": "B3", "values": [{"measurement": "binding result", "setting": "GST", "result": "no binding (tested: 1 µg GST fusion protein)"}]}, {"binder": "B4", "values": [{"measurement": "binding result", "setting": "[4]", "result": "no binding"}]}, {"binder": "B5", "values": [{"measurement": "binding result", "setting": "GST", "result": "no binding (tested: 1 µg GST fusion protein)"}]}, {"binder": "B6", "values": [{"measurement": "binding result", "setting": "[5]", "result": "no binding"}, {"measurement": "binding result", "setting": "[4]", "result": "no binding"}]}, {"binder": "B7", "values": [{"measurement": "binding result", "setting": "[6]", "result": "binds"}]}, {"binder": "B8", "values": [{"measurement": "binding result", "setting": "[2]", "result": "no binding"}]}]}
